# Experimental data: article doi:10.1101/2025.07.23.666440
# Target: PANA_2924 C-terminal domain after TEV cleavage of the His-TEV tag (Pantoea ananatis LMG 20103) (UniProt D4GKQ2)
# Assay: SEC
substance,measurement,value
PANA_2923 immunity protein (natural protein),stoichiometry N,1
